Assays:
[1] = target: CEA (carcino-embryonic antigen) (UniProt P06731); test: enzyme activity specificity test, CEA-coated plate; pH 5.0 eluate 1:3, dilution 1:256
[2] = target: CEA (carcino-embryonic antigen) (UniProt P06731); test: enzyme activity specificity test, CEA-coated plate; disrupted cell suspension 1:3, dilution 1:8
[3] = target: CEA (carcino-embryonic antigen) (UniProt P06731); test: enzyme activity specificity test, CEA-coated plate; void volume of affinity column 1:1, dilution 1:128
[4] = target: CEA (carcino-embryonic antigen) (UniProt P06731); test: enzyme activity specificity test, CEA-coated plate; disrupted cell suspension 1:3, dilution 1:16
[5] = target: CEA (carcino-embryonic antigen) (UniProt P06731); test: enzyme activity specificity test, CEA-coated plate; pH 5.0 eluate ultrafiltrate 1:1, dilution 1:128
[6] = target: CEA (carcino-embryonic antigen) (UniProt P06731); test: enzyme activity specificity test, CEA-coated plate; pH 5.0 eluate ultrafiltrate 1:1, dilution 1:64
[7] = target: CEA (carcino-embryonic antigen) (UniProt P06731); test: enzyme activity specificity test, CEA-coated plate; pH 5.0 eluate 1:3, dilution 1:32
[8] = target: CEA (carcino-embryonic antigen) (UniProt P06731); test: enzyme activity specificity test, CEA-coated plate; pH 5.0 eluate ultrafiltrate 1:1, dilution 1:8
[9] = target: CEA (carcino-embryonic antigen) (UniProt P06731); test: enzyme activity specificity test, CEA-coated plate; void volume of affinity column 1:1, dilution 1:16
[10] = target: CEA (carcino-embryonic antigen) (UniProt P06731); test: enzyme activity specificity test, CEA-coated plate; pH 5.0 eluate ultraconcentrate 1:10, dilution 1:128
[11] = target: CEA (carcino-embryonic antigen) (UniProt P06731); test: enzyme activity specificity test, CEA-coated plate; pH 5.0 eluate ultraconcentrate 1:10, dilution 1:2
[12] = target: CEA (carcino-embryonic antigen) (UniProt P06731); test: enzyme activity specificity test, CEA-coated plate; void volume of affinity column 1:1, dilution 1:2
[13] = target: CEA (carcino-embryonic antigen) (UniProt P06731); test: enzyme activity specificity test, CEA-coated plate; pH 5.0 eluate 1:3, dilution 1:128
[14] = target: CEA (carcino-embryonic antigen) (UniProt P06731); test: enzyme activity specificity test, CEA-coated plate; pH 5.0 eluate ultraconcentrate 1:10, dilution 1:8
[15] = target: CEA (carcino-embryonic antigen) (UniProt P06731); test: enzyme activity specificity test, CEA-coated plate; pH 5.0 eluate 1:3, dilution 1:2
[16] = target: CEA (carcino-embryonic antigen) (UniProt P06731); test: enzyme activity specificity test, CEA-coated plate; pH 5.0 eluate ultrafiltrate 1:1, dilution 1:4
[17] = target: CEA (carcino-embryonic antigen) (UniProt P06731); test: enzyme activity specificity test, CEA-coated plate; void volume of affinity column 1:1, dilution 1:256
[18] = target: CEA (carcino-embryonic antigen) (UniProt P06731); test: enzyme activity specificity test, CEA-coated plate; disrupted cell suspension 1:3, dilution 1:64
[19] = target: CEA (carcino-embryonic antigen) (UniProt P06731); test: enzyme activity specificity test, CEA-coated plate; pH 5.0 eluate ultraconcentrate 1:10, dilution 1:64
[20] = target: CEA (carcino-embryonic antigen) (UniProt P06731); test: enzyme activity specificity test, CEA-coated plate; void volume of affinity column 1:1, dilution 1:64
[21] = target: CEA (carcino-embryonic antigen) (UniProt P06731); test: enzyme activity specificity test, CEA-coated plate; pH 5.0 eluate ultraconcentrate 1:10, dilution 1:32
[22] = target: CEA (carcino-embryonic antigen) (UniProt P06731); test: enzyme activity specificity test, CEA-coated plate; void volume of affinity column 1:1, dilution 1:4
[23] = target: CEA (carcino-embryonic antigen) (UniProt P06731); test: enzyme activity specificity test, CEA-coated plate; pH 5.0 eluate 1:3, dilution 1:8
[24] = target: CEA (carcino-embryonic antigen) (UniProt P06731); test: enzyme activity specificity test, CEA-coated plate; void volume of affinity column 1:1, dilution 1:8
[25] = target: CEA (carcino-embryonic antigen) (UniProt P06731); test: enzyme activity specificity test, CEA-coated plate; disrupted cell suspension 1:3, dilution 1:32
[26] = target: CEA (carcino-embryonic antigen) (UniProt P06731); test: enzyme activity specificity test, CEA-coated plate; disrupted cell suspension 1:3, dilution 1:4
[27] = target: CEA (carcino-embryonic antigen) (UniProt P06731); test: enzyme activity specificity test, CEA-coated plate; pH 5.0 eluate 1:3, dilution 1:4
[28] = target: CEA (carcino-embryonic antigen) (UniProt P06731); test: enzyme activity specificity test, CEA-coated plate; disrupted cell suspension 1:3, dilution 1:128
[29] = target: CEA (carcino-embryonic antigen) (UniProt P06731); test: enzyme activity specificity test, CEA-coated plate; disrupted cell suspension 1:3, dilution 1:2
[30] = target: CEA (carcino-embryonic antigen) (UniProt P06731); test: enzyme activity specificity test, CEA-coated plate; disrupted cell suspension 1:3, dilution 1:256
[31] = target: CEA (carcino-embryonic antigen) (UniProt P06731); test: enzyme activity specificity test, CEA-coated plate; pH 5.0 eluate ultraconcentrate 1:10, dilution 1:4
[32] = target: CEA (carcino-embryonic antigen) (UniProt P06731); test: enzyme activity specificity test, CEA-coated plate; pH 5.0 eluate 1:3, dilution 1:64
[33] = target: CEA (carcino-embryonic antigen) (UniProt P06731); test: enzyme activity specificity test, CEA-coated plate; pH 5.0 eluate 1:3, dilution 1:16
[34] = target: CEA (carcino-embryonic antigen) (UniProt P06731); test: enzyme activity specificity test, CEA-coated plate; pH 5.0 eluate ultrafiltrate 1:1, dilution 1:256
[35] = target: CEA (carcino-embryonic antigen) (UniProt P06731); test: enzyme activity specificity test, CEA-coated plate; pH 5.0 eluate ultrafiltrate 1:1, dilution 1:2
[36] = target: CEA (carcino-embryonic antigen) (UniProt P06731); test: enzyme activity specificity test, CEA-coated plate; pH 5.0 eluate ultraconcentrate 1:10, dilution 1:16
[37] = target: CEA (carcino-embryonic antigen) (UniProt P06731); test: enzyme activity specificity test, CEA-coated plate; pH 5.0 eluate ultrafiltrate 1:1, dilution 1:32
[38] = target: CEA (carcino-embryonic antigen) (UniProt P06731); test: enzyme activity specificity test, CEA-coated plate; pH 5.0 eluate ultrafiltrate 1:1, dilution 1:16
[39] = target: CEA (carcino-embryonic antigen) (UniProt P06731); test: enzyme activity specificity test, CEA-coated plate; void volume of affinity column 1:1, dilution 1:32
[40] = target: CEA (carcino-embryonic antigen) (UniProt P06731); test: enzyme activity specificity test, CEA-coated plate; pH 5.0 eluate ultraconcentrate 1:10, dilution 1:256

Sequence of UniProt P06731 (P06731 35-685 limits assumed): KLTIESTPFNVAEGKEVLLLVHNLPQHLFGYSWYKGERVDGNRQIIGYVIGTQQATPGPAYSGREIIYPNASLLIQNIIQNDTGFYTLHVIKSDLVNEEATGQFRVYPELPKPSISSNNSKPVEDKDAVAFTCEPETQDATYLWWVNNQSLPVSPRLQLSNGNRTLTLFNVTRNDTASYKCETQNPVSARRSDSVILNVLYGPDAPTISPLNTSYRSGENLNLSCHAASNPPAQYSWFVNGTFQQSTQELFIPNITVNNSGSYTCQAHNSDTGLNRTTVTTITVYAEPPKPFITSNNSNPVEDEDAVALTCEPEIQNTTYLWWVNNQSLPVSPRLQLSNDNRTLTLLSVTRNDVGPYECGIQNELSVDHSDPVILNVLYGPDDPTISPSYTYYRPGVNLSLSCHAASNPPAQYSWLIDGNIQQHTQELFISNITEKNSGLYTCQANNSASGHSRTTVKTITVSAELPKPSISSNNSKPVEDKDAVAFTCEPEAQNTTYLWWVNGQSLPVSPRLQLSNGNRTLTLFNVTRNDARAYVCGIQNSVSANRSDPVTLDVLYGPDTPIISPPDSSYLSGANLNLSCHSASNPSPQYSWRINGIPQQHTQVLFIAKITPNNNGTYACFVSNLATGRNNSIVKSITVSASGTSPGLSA

B1: Fab BW 431/26-E. coli β-glucuronidase fusion protein (protein)
heavy: MEVQLQESGPGLVRPSQTLSLTCTVSGFTISSGYSWHWVRQPPGRGLEWIGYIQYSGITNYNPSLKSRVTMLVDTSKNQFSLRLSSVTAADTAVYYCAREDYDYHWYFDVWGQGSLVTVTVSSASTKGPSVFPLAPCSRSTSGGTAALGCLVKDYFPEPVTVSWNSGALTSGVHTFPAVLQSSGLYSLSSVVTVPSSSLGTQTYTCNVNHKPSNTKVDKRVELGSGSGSMVRPVETPTREIKKLDGLWAFSLDRENCGIDQRWWESALQESRAIAVPGSFNDQFADADIRNYAGNVWYQREVFIPKGWAGQRIVLRFDAVTHYGKVWVNNQEVMEHQGGYTPFEADVTPYVIAGKSVRITVCVNNELNWQTIPPGMVITDENGKKKQSYFHNFFNYAGIHRSVMLYTTPNTWVDDITVVTHVAQDCNHASVDWQVVANGDVSVELRDADQQVVATGQGTSGTLQVVNPHLWQPGEGYLYELCVTAKSQTECDIYPLRVGIRSVAVKGEQFLINHKPFYFTGFGRHEDADLRGKGFDNVLMVHDHALMDWIGANSYRTSHYPYAEEMLDWADEHGIVVIDETAAVGFNLSLGIGFEAGNKPKELYSEEAVNGETQQAHLQAIKELIARDKNHPSVVMWSIANEPDTRPQGAREYFAPLAEATRKLDPTRPITCVNVMFCDAHTDTISDLFDVLCLNRYYGWYVQSGDLETAEKVLEKELLAWQEKLHQPIIITEYGVDTLAGLHSMYTDMWSEEYQCAWLDMYHRVFDRVSAVVGEQVWNFADFATSQGILRVGGNKKGIFTRDRKPKSAAFLLQKRWTGMNFGEKPQQGGKQ
light: MDIQMTQSPSSLSASVGDRVTITCSTSSSVSYMHWYQQKPGKAPKLLIYSTSNLASGVPSRFSGSGSGTDFTFTISSLQPEDIATYYCHQWSSYPTFGQGTKVEIKRTVAAPSVFIFPPSDEQLKSGTASVVCLLNNFYPREAKVQWKVDNALQSGNSQESVTEQDSKDSTYSLSSTLTLSKADYEKHKVYACEVTHQGLSSPVTKSFNRGEC
Q: With B1 as the binder, how does the relative fluorescence units (FU) [1] read?
A: Its relative fluorescence units (FU) is 114 FU.

Q: What about the relative fluorescence units (FU) [2] of the same binder?
A: The relative fluorescence units (FU) was 7530 FU.

Q: What about the relative fluorescence units (FU) [3] of the same binder?
A: Its relative fluorescence units (FU) is 86.2 FU.

Q: What about the relative fluorescence units (FU) [4] of the same binder?
A: The relative fluorescence units (FU) was 6630 FU.

Q: And the relative fluorescence units (FU) [5]?
A: The relative fluorescence units (FU) was 23.5 FU.

Q: What about the relative fluorescence units (FU) [6] of the same binder?
A: Its relative fluorescence units (FU) is 25.8 FU.

Q: What about the relative fluorescence units (FU) [7] of the same binder?
A: Its relative fluorescence units (FU) is 1980 FU.

Q: What about the relative fluorescence units (FU) [8] of the same binder?
A: Its relative fluorescence units (FU) is 90.2 FU.

Q: What about the relative fluorescence units (FU) [9] of the same binder?
A: Its relative fluorescence units (FU) is 1480 FU.

Q: And the relative fluorescence units (FU) [10]?
A: Its relative fluorescence units (FU) is 1650 FU.

Q: What about the relative fluorescence units (FU) [11] of the same binder?
A: Its relative fluorescence units (FU) is 7900 FU.

Q: What about the relative fluorescence units (FU) [12] of the same binder?
A: The relative fluorescence units (FU) was 6550 FU.

Q: And the relative fluorescence units (FU) [13]?
A: The relative fluorescence units (FU) was 302 FU.

Q: And the relative fluorescence units (FU) [14]?
A: Its relative fluorescence units (FU) is 8040 FU.

Q: And the relative fluorescence units (FU) [15]?
A: The relative fluorescence units (FU) was 7780 FU.

Q: And the relative fluorescence units (FU) [16]?
A: Its relative fluorescence units (FU) is 173 FU.

Q: What about the relative fluorescence units (FU) [17] of the same binder?
A: The relative fluorescence units (FU) was 46.3 FU.

Q: What about the relative fluorescence units (FU) [18] of the same binder?
A: The relative fluorescence units (FU) was 2510 FU.

Q: And the relative fluorescence units (FU) [19]?
A: The relative fluorescence units (FU) was 3620 FU.

Q: What about the relative fluorescence units (FU) [20] of the same binder?
A: The relative fluorescence units (FU) was 214 FU.

Q: What about the relative fluorescence units (FU) [21] of the same binder?
A: Its relative fluorescence units (FU) is 5800 FU.

Q: And the relative fluorescence units (FU) [22]?
A: The relative fluorescence units (FU) was 5230 FU.

Q: What about the relative fluorescence units (FU) [23] of the same binder?
A: Its relative fluorescence units (FU) is 6360 FU.

Q: What about the relative fluorescence units (FU) [24] of the same binder?
A: Its relative fluorescence units (FU) is 3220 FU.

Q: What about the relative fluorescence units (FU) [25] of the same binder?
A: Its relative fluorescence units (FU) is 4560 FU.

Q: And the relative fluorescence units (FU) [26]?
A: The relative fluorescence units (FU) was 8150 FU.

Q: And the relative fluorescence units (FU) [27]?
A: The relative fluorescence units (FU) was 7570 FU.

Q: And the relative fluorescence units (FU) [28]?
A: Its relative fluorescence units (FU) is 1020 FU.

Q: What about the relative fluorescence units (FU) [29] of the same binder?
A: The relative fluorescence units (FU) was 8180 FU.

Q: What about the relative fluorescence units (FU) [30] of the same binder?
A: Its relative fluorescence units (FU) is 422 FU.

Q: And the relative fluorescence units (FU) [31]?
A: Its relative fluorescence units (FU) is 8110 FU.

Q: And the relative fluorescence units (FU) [32]?
A: The relative fluorescence units (FU) was 816 FU.

Q: What about the relative fluorescence units (FU) [33] of the same binder?
A: Its relative fluorescence units (FU) is 4240 FU.

Q: And the relative fluorescence units (FU) [34]?
A: The relative fluorescence units (FU) was 19.4 FU.

Q: And the relative fluorescence units (FU) [35]?
A: Its relative fluorescence units (FU) is 74.7 FU.

Q: What about the relative fluorescence units (FU) [36] of the same binder?
A: Its relative fluorescence units (FU) is 7150 FU.

Q: What about the relative fluorescence units (FU) [37] of the same binder?
A: The relative fluorescence units (FU) was 38.8 FU.

Q: What about the relative fluorescence units (FU) [38] of the same binder?
A: Its relative fluorescence units (FU) is 52.3 FU.

Q: What about the relative fluorescence units (FU) [39] of the same binder?
A: Its relative fluorescence units (FU) is 525 FU.

Q: What about the relative fluorescence units (FU) [40] of the same binder?
A: The relative fluorescence units (FU) was 666 FU.
